# B1: IFNγ: interferon-γ or, equivalently, interferon-γ1b (CAS number 82115-62-6), pleiotropic cytokine (protein, UniProt P01579 24-161, looked up)
# Interferon gamma: QDPYVKEAENLKKYFNAGHSDVADNGTLFLGILKNWKEESDRKIMQSQIVSFYFKLFKNFKDDQSIQKSVETIKEDMNVKFFNSNKKKRDDFEKLTNYSVTDLNVQRKAIHELIQVMAELSPAAKTGKRKRSQMLFRG
# What was measured:
# hfRPE monolayers [1] = assay: Transepithelial fluid transport (JV) across hfRPE monolayers, capacitance probe technique; format: cell-based, human; conditions: for normal fluid absorption after MEK inhibitor: IFN-γ (15 ng/ml, FIG. 10B) to basal bath after 72 hours 10 μM plus acute 100 μM MEK inhibitor; for rescue of apical MEK inhibitor-induced reduction in fluid absorption: basolateral IFN-γ (10 ng/ml, FIGS. 11A, 11B) after acute apical MEK inhibitor
# Description: Confluent monolayers of hfRPE cultured on transwells were mounted in an electrophysiological chamber and transepithelial water flow (JV) measurements were made with a capacitance probe technique as described previously in Maminishkis 2006; Shi, G., et al., Invest Ophthalmol Vis Sci, 2008, 49, 4620-4630; Edelman, J. L., et al., Invest Ophthalmol Vis Sci, 1991, 32, 3033-3040; Jiang, C., et al., Science, 1993, 262, 424-427; and Maminishkis, A., et al., Invest Ophthalmol Vis Sci, 2002, 43, 3555-3566, each incorporated herein by reference in its entirety. In brief, the RPE is mounted in a water-jacketed ? ssing chamber and oriented vertically with the apical and basolateral membranes separately exposed to Ringer's solution held in bathing reservoirs. Stainless steel probes (Accumeasure System 1000; MT Instruments, Latham, N.Y.) are lowered into the apical and basolateral bathing wells to measure the capacitance of the air gap between the probe and fluid meniscus. Fluid transport rate JV (μl·cm^−2·hr^−1) is determined by monitoring the fluid movement-induced changes in the air gap capacitance at the apical and basolateral baths. The probes on both sides of the tissue are backed off from the surface of the Ringer's solution during a bathing solution change.
# The capacitance probes are moved away from the bathing reservoirs and fresh control Ringer's solution perfused into the chamber. The fluid transport apparatus also allows continuous monitoring of TEP and RT, but for technical reasons (e.g., solution perfusion rates, TEP/RT sampling rates, and electrode stability) the initial changes in TEP and RT can only be compared to those seen in the electrophysiology experiments. Experiments are continued only if JV, TEP, and RT are not appreciably altered by this control-to-control Ringer's solution change. The water jacketed ? ssing chamber is placed in an incubator to maintain steady-state control over temperature, pCO2, and humidity.
# Tissue viability was ascertained by recording transepithelial potential (TEP) and total tissue resistance (RT). It should be noted that the solution composition changes in this chamber were relatively slow (≈1-2 chamber volumes per minute) and the data sampling rate was once per minute, more than two orders of magnitude slower than the sampling rate in the electrophysiology chamber (see below). Therefore it was not possible to record fast changes, in seconds or minutes, in JV, TEP, or RT. After addition of IFNγ to the apical or basal baths, steady-state JV, TEP, and RT were recorded for 20-30 minutes. In control experiments, successive additions of IFNγ were made to test for the repeatability and reversibility of responses.
# Effects of MEK inhibitor on human fetal retinal pigment epithelium (hfRPE) were measured following acute and chronic addition of inhibitor. Experiments were performed using hfRPE monolayers grown on semipermeable inserts with media access to apical and basal sides of the epithelium. In different sets of experiments, MEK inhibitor was added to apical, basal, or both sides of hfRPE mounted in modified ? ssing chambers. In chronic experiments hfRPE were pre-treated with 10 μM MEK inhibitor added to apical and basal baths for 24, 48, or 72 hours. For chronic experiments lasting more than 24 hours, transepithelial resistance (TER) was measured daily. Prior to the transfer of the epithelial monolayer to the ? ssing chamber, the TER of whole insert was compared to the TER measured in the ? ssing chamber. This procedure helps confirm the tissue integrity following the transfer from the cell culture insert to the ? ssing chamber. The TER summary data for chronic experiments contains cumulative recordings of TER obtained from inserts and ? ssing chambers.
# [2] = tested on: patients with uveitic cystoid macular edema; assay: Phase I open label trial of topical IFNγ in patients with CME secondary to uveitis; format: in vivo, human
# Description: A phase I open label clinical trial was conducted aimed at investigating the safety and tolerability of topically applied IFN gamma in patients with uveitic cystoid macular edema. To test whether cystoid macular edema (CME), secondary to uveitis, is caused by the disequilibrium of the JAK/STAT and mTor signal transduction pathways in the retinal pigment epithelium (RPE), IFNγ was topically applied in human patients. Five participants with CME secondary to uveitis received a topical ocular instillation of IFNγ in a Phase I, non-randomized, prospective, uncontrolled, dose-escalation, single-center study. The study involved a one-time instillation or series of instillations of IFNγ on the cornea and measurement of a response with optical coherence tomography (OCT) over a three hour period.
# A 25% decrease in macular thickness is observed at a post-instillation as compared to baseline. In the study, the first two participants received one instillation (each instillation contains 10 μg in 0.05 mL solution) on the cornea at time zero, the next two participants received two instillations, 10 minutes apart, for a total dosage of 20 and the final participant received three instillations, 10 minutes apart, for a total of 30 μg. OCT was obtained at −60 minutes, −30 minutes and just before the instillation(s). Repeat OCTs were taken at +30 minutes, +60 minutes and +120 minutes. All participants returned for a one-week safety visit.
# The primary outcome was the change in central macular thickness as measured by OCT in response to interferon IFNγ as compared with baseline. Secondary outcomes included changes in macular volume as measured by OCT, visual acuity, intraocular pressure, intraocular inflammation and ocular surface irritation assessed by fluorescein staining of the cornea and conjunctiva to assess toxicity. For safety measurements, the following were measured: the presence of ocular surface irritation assessed by fluorescein staining of the cornea and conjunctiva to assess toxicity; the number and severity of systemic and ocular toxicities and adverse events; and the proportion of participants with a visual loss of ≧15 ETDRS letters.
# All participants undergo a dilated ophthalmic examination the day of the testing. One eye is chosen as the study eye. The participants receive the evaluation around 12:00 p.m. Participants then have a OCT at −60 minutes, −30 minutes and just before the ocular instillation. The ocular instillation occurs no earlier than 1:00 p.m. Repeat OCT recordings are taken at +30, +60 and +120 minutes after instillation. There is a window of ±15 minutes for each OCT test.
# OCT testing is performed with the Cirrus™ high-definition OCT (Carl Zeiss Meditec, Inc.) scanner using a 512×128 scan pattern where a 6×6-mm area on the retina is scanned with 128 horizontal lines, each consisting of 512 A-scans per line (a total of 65,536 sampled points) within a scan time of 2.4 seconds. The scanner automatically focuses on the macula. Data for macular thickness calculations are collected from an array of A-scans distributed across the macular using the macular thickness analysis algorithm. The three pre-instillation measurements are averaged to calculate the baseline macular thickness measurement. Post-instillation OCT macular thickness calculations (+30, +60 and +120 minutes) is compared to the baseline measurement separately. A 25% reduction in central macular thickness is observed in treated patients.
# Interferon γ-1b is administered as follows: • 1. Topical tetracaine 1% or proparacaine 0.5% drops are applied to the study eye surface one to two minutes prior to instillation. • 2. The participant applies punctal pressure to his/her […] eye. • 3. The investigator holds the participant's study eye open. • 4. A volume of 0.05 mL of IFNγ is instilled on the center of the study eye's cornea from a tuberculin syringe. • 5. […]
# [3] = tested on: patients with central serious chorioretinopathy; assay: Topical IFN gamma in patients with central serious chorioretinopathy (ongoing trial); format: in vivo, human
# Description: Topical IFN gamma was also studied in the treatment of serious retinal detachments in patients with central serious chorioretinopathy. […] This occurred during the second week of a two-week course of therapy.
# hfRPE monolayers [4] = conditions: IFN-γ in basal bath, increased from 7; Li et al., 2009; cited from earlier work
# [5] = tested on: animal model of retinal-reattachment; conditions: topical addition, cited from earlier work
molecule,measurement,setting,value
B1,normal fluid absorption after MEK inhibitor,hfRPE monolayers [1],rescue of fluid transport
same,normal fluid absorption after MEK inhibitor,hfRPE monolayers [1]; listed as IFN-γ,partially restored
same,restoration of MEK inhibitor-decreased fluid absorption,hfRPE monolayers [1]; IFN-γ added to basolateral bath after chronic 10 μM (72 hours) plus acute apical 100 μM MEK inhibitor,almost completely restored
same,increase of JV,hfRPE monolayers [1]; IFNγ 5 ng/ml in the basal bath (FIG. 7),~8.6 μl·cm−2·hr^−1
same,fluid transport across RPE,hfRPE monolayers [1]; IFNγ added to the basal side of hfRPE (FIG. 7),significantly increase
same,cell viability as measured by TEP and RT,hfRPE monolayers [1]; IFNγ treatment of hfRPE,did not affect cell viability
same,rescue of apical MEK inhibitor-induced reduction in fluid absorption,hfRPE monolayers [1],reverse
same,rescue of apical MEK inhibitor-induced reduction in fluid absorption,hfRPE monolayers [1]; listed as IFN-γ,almost completely rescued
same,mean JV after IFNγ,"hfRPE monolayers [1]; increased from 12.9±1.6, mean±SEM, p<0.01",20.5±3.1 μl·cm−2·hr^−1
same,ocular surface irritation by slit lamp exam,[2]; 5 patients,no patient developed evidence of ocular surface irritation
same,serious adverse events,[2]; 5 patients,no serious adverse events
same,tolerability of drops,"[2]; 5 patients, 1-week period",well tolerated
same,patients reporting irritation or other new ocular complaints,"[2]; 5 patients, during 1-week period or beyond",none of the 5 patients
same,thickness and volume of macular edema by OCT,[2]; most patients,slight (albeit clinically insignificant) decrease
same,decrease in (central) macular thickness by OCT compared to baseline,"[2]; topical instillation 10-30 μg, post-instillation +30, +60, +120 minutes",25%
same,resolution of redness after cessation of drops,"[3]; both affected patients, no persistent ocular changes",within one day
same,clinical outcome in serious retinal detachments,[3]; four patients studied so far,some clinical success
same,painless conjunctival injection with no change in vision,[3]; second week of a two-week course of therapy,two of the four patients
same,steady state Jv after IFN-γ,hfRPE monolayers [4],16 μl·cm−2·hr^−1
same,subretinal fluid,[5]; monitored by high resolution OCT,remove fluid from the subretinal space
same,JAK/STAT pathway,[5],activated

# Reference: patent US20150265679A1, “METHOD OF REDUCING ADVERSE EFFECTS IN A CANCER PATIENT UNDREGOING TREATMENT WITH A MEK INHIBITOR” (THE UNITED STATES OF AMERICA, as represented by THE …, priority 2013, published 2015)
